From patent US8709448B2, “Anti-infective agents and uses thereof” (priority 2008, dated 2014)

Test system: PBMC

IFNα
effect on overall PBMC culture viability: no effect
